This note sets out measurements from PMC4211667, “Cell Fate Regulation Governed by a Repurposed Bacterial Histidine Kinase” (PLoS Biology, 2014).

One series has as its target T1, DivJ (Caulobacter vibrioides, UniProt Q03228).
T1 construct: His-tagged, recombinant from E. coli
Briefly: coupled-enzyme (PK/LDH, NADH) ATPase assay. Particulars: 1 mM ATP, 10 mM MgCl2, kinase buffer pH 8.0; with and without DivK activator. The series is classed as biochemical.

The target in another series is T2, DivL(523–769) (Caulobacter vibrioides, UniProt Q9RQQ9).
T2 construct: DHp-CA domains only (no PAS domains), residues 523-769, N-terminal His6, E. coli Rosetta (DE3) pLysS, homodimer in solution
T2 sequence (Q9RQQ9 523-769): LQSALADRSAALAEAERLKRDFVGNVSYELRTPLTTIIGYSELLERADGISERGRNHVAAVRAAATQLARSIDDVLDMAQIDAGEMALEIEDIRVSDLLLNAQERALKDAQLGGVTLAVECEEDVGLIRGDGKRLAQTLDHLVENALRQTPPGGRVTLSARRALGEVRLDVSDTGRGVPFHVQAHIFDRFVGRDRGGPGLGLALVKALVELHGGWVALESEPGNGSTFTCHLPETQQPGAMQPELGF
Description: fluorescence titration of TNP-ATP with DivL. The settings on record: read-out: apparent binding constant.

Series [1] has as its target BODIPY-DivK (unphosphorylated DivK response regulator) (Caulobacter crescentus). Briefly: fluorescence polarisation; 250 nM BODIPY-DivK or BODIPY-DivK∼P with varying kinase concentrations (DivL 0–120 µM), 45 min to equilibrium; DivK∼P made with 250 nM DivJ, 1 mM ATP, 5 mM MgCl2; unphosphorylated DivK with 1 mM AMP-PNP, 5 mM MgCl2; apparent Kd. (Fluorescence polarisation rises when a labelled molecule tumbles more slowly, as on binding a larger partner.)

The target of series [2] is BODIPY-DivK∼P (phosphorylated DivK response regulator) (Caulobacter crescentus). Described as above.
Series [3] concerns the target BODIPY-DivK (unphosphorylated DivK response regulator). Briefly: fluorescence polarization binding assay. Particulars: parent: est. 2.0; read off a plot.
Series [4] concerns the target BODIPY-DivK∼P (phosphorylated DivK response regulator). Description: fluorescence polarization binding assay. Particulars: parent: est. 36; read off a plot.
Series [5] concerns the molecule itself. Description: SEC; gel filtration of the purified DivL point mutants; conditions not given. On the technique in general: SEC sorts molecules by how far they enter the pores of the column.
Series [6] addresses BODIPY-DivK (unphosphorylated DivK response regulator) (Caulobacter crescentus). Briefly: fluorescence polarisation; 250 nM BODIPY-DivK or BODIPY-DivK∼P with varying kinase concentrations (DivL 0–120 µM), 45 min to equilibrium; DivK∼P made with 250 nM DivJ, 1 mM ATP, 5 mM MgCl2; unphosphorylated DivK with 1 mM AMP-PNP, 5 mM MgCl2; apparent Kd. The source holds these as a separate data set.

The target of series [7] is BODIPY-DivK∼P (phosphorylated DivK response regulator) (Caulobacter crescentus). The description is as above. The source holds these as a separate data set.
Series [8] deals with the molecule itself. Briefly: SEC; 2 mg/ml His6-DivL(523–769) on Superdex 200 10/300 GL against Bio-rad standards.

Substitutions are numbered along the chain they refer to. Numbers in names are those of the source. Where two headings read alike, the source gives them in different places.

For orientation: stoichiometry N means a count of units in the complex or per binding partner.

T1 sequence (Q03228 189-597): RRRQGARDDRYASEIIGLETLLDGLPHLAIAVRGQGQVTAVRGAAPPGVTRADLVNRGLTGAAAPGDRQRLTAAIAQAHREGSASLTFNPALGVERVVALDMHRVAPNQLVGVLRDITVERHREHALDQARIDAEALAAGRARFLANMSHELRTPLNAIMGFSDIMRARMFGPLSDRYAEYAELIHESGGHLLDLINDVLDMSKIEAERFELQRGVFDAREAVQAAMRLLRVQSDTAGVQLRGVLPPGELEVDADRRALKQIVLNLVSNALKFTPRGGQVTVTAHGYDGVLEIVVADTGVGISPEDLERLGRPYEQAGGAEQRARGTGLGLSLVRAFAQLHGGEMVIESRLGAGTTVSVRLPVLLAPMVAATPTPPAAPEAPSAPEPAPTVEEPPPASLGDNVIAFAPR

In the case of `Nc1ncnc2c1ncn2[C@@H]1O[C@H](COP(=O)(O)OP(=O)(O)OP(=O)(O)O)[C@@H](O)[C@H]1O` [ATP], the ATP consumption rate result on DivJ is “we observed stimulation of DivJ autokinase activity in the presence of DivK”.
On to `Nc1ncnc2c1ncn2[C@@H]1O[C@H](COP(=O)(O)OP(=O)(O)OP(=O)(O)O)[C@H]2OC3(O[C@H]21)C([N+](=O)[O-])=CC(=[N+]([O-])O)C=C3[N+](=O)[O-]` (stereo partly shown) [TNP-ATP], for which the Kd at DivL(523–769) came out at 57 ± 8 µM.

B1: DivJ histidine kinase, Q03228 1-597 (enzyme)
chain: RDDRYASEIIGLETLLDGLPHLAIAVRGQGQVTAVRGAAPPGVTRADLVNRGLTGAAAPGDRQRLTAAIAQAHREGSASLTFNPALGVERVVALDMHRVAPNQLVGVLRDITVERHREHALDQARIDAEALAAGRARFLANMSHELRTPLNAIMGFSDIMRARMFGPLSDRYAEYAELIHESGGHLLDLINDVLDMSKIEAERFELQRGVFDAREAVQAAMRLLRVQSDTAGVQLRGVLPPGELEVDADRRALKQIVLNLVSNALKFTPRGGQVTVTAHGYDGVLEIVVADTGVGISPEDLERLGRPYEQAGGAEQRARGTGLGLSLVRAFAQLHGGEMVIESRLGAGTTVSVRLPVLLAPMVAATPTPPAAPEAPSAPEPAPTVEEPPPASLGDNVIAFAPR
modifications: not checked
B1: the Kd stood at 8 µM in series [1] and 16 µM in series [2].

B2: PleC histidine kinase/phosphatase, P37894 1-842 (enzyme)
chain: VAHREFIDSERRFRLAVEAARCGIWEWDLNGDQVYLSDVTGAMFGWGGGGVVSGQDLLERISIDHRERVRQALANAAMYGAFDVSFRVPASEQGARSLWIDARGQGFGKPGSEGHARIIGVALDVTEERIAQARAQAAENRLRDAIESVSEAFVLWDRQGRLLMCNRNYRSVFSLEPKILKPGAARAEVNRFAALAIKQDHPAPDGAKGVREAEMMDGRWIQISERRTAEGGLVMTAADITAIKTQEEARRRNEEQLQNAVAGLERSQEQLAELARKYETEKVKAESANKAKSEFLANMSHELRTPLNAINGFSEIMMNEMFGPLGDQRYKGYSQDIHSSGQHLLALINDILDMSKIEAGKMNLKFESMHLEDVAEDAVRLVRNRAEAAGLKLDIDFPQLPEIEADYRAVKQVLLNLLSNAIKFTPRAGSVTVRAEVRRDPFGDLIKVSVTDTGIGIAKEDLARLAKPFEQVESQFSKTTQGTGLGLALTKSLITMHDGVLEMHSTPGEGTTVSFTLPVRHSDQKITRDFVAA
modifications: not checked
B2: the Kd in [1] is 26 µM; in series [2], 2.4 µM.

B3: DivL(152–769) Y562A (domain or fragment, Caulobacter crescentus, UniProt Q9RQQ9 152-769, looked up)
chain: RADSGLPTAARFAAFVDSVVEPCWIAGADGQAIWGNAAFVRAVGAASAQAPALAGKSFDRGADAVVVEAAGKGERREALRWINVEGRRRAFRLSAQPLDGGGVGVFCADVTEIEDVRDAFKKHVEAHDETLNHIAEAVAIFSQTRRLSYHNTAFAELWGLEPAWLADRPTHGEVLDRLRQRRRLPETIDYAGWKAAELARYEDLGPQADDLWDLPDGRTLKVVRQPHPLGGMLLIYSDITGELRLKAQYNALIQVQQATLDKLNDAVAVFGSDGRLRLHNEAFETFWNVTPHALEAAGDFEGVVELCVPRLHDLSFWRELKGRVADPDPQMRAPTSGEVRTSDSRIVLYQSRPLPDGATLIAFADVTDTRDLQSALADRSAALAEAERLKRDFVGNVSYELRTPLTTIIGASELLERADGISERGRNHVAAVRAAATQLARSIDDVLDMAQIDAGEMALEIEDIRVSDLLLNAQERALKDAQLGGVTLAVECEEDVGLIRGDGKRLAQTLDHLVENALRQTPPGGRVTLSARRALGEVRLDVSDTGRGVPFHVQAHIFDRFVGRDRGGPGLGLALVKALVELHGGWVALESEPGNGSTFTCHLPETQQPGAMQPELGF
notes: DivL pseudo-histidine kinase, Caulobacter crescentus, residues 152-769; source: E. coli Rosetta (DE3) pLysS, purified (Ni-NTA, gel filtration)
In the case of B3, the response came to 2.9 AU in series [3] and 3.2 AU in series [4]. For the same molecule, the “stoichiometry N” value in series [5] worked out at 2.

B4: DivL(152–769) H579E (domain or fragment, Caulobacter crescentus, UniProt Q9RQQ9 152-769, looked up)
chain: B3 chain with A411Y, H428E
notes: as for B3
For the molecule B4, the response is 4.2 AU in series [3] and 5.1 AU in series [4]. Further, the “stoichiometry N” value in [5] came out at 2.

B5: DivL(152–769) T557N (domain or fragment, Caulobacter crescentus, UniProt Q9RQQ9 152-769, looked up)
chain: B3 chain with T406N, A411Y
notes: as for B3
On to B5, for which the response in series [4] amounted to 2.6 AU. For the same molecule, in series [5], the “stoichiometry N” value worked out at 2.

B6: DivL(152–769) (domain or fragment)
chain: B3 chain with A411Y
Turning to B6, the Kd is over 150 µM in series [6] and 11 µM in series [7].

B7: DivL(152–769) Y550H (domain or fragment, Caulobacter crescentus, UniProt Q9RQQ9 152-769, looked up)
chain: B3 chain with Y399H, A411Y
notes: DivL pseudo-histidine kinase, Caulobacter crescentus, residues 152-769; also called DivL Y550H; source: E. coli Rosetta (DE3) pLysS, purified (Ni-NTA, gel filtration)
For the molecule B7, the response in series [3] is 4 AU; in [4] it was 35 AU. In addition, the “stoichiometry N” value in series [5] was 2.

B8: DivL(152–769) R553A (domain or fragment, Caulobacter crescentus, UniProt Q9RQQ9 152-769, looked up)
chain: B3 chain with R402A, A411Y
notes: as for B3
For the molecule B8, the response is 2.3 AU in series [3] and 3.2 AU in series [4]. In addition, the “stoichiometry N” value in series [5] was found to be 2.

B9: His6-DivL(523–769) (domain or fragment, Caulobacter crescentus, UniProt Q9RQQ9 523-769, looked up)
chain: T2 sequence (Q9RQQ9 523-769)
notes: DivL pseudo-histidine kinase, Caulobacter crescentus, residues 523-769 (DHp and CA domains with part of the N-terminal input helix); also called DivL DHp-CA construct; crystallization construct; source: E. coli Rosetta (DE3) pLysS (plasmid pWSC8), purified (Ni-NTA, gel filtration); not shown: His6, N-terminal, kept
For the molecule B9, in series [8], the “stoichiometry N” value was 2. Further, the results for the Kd in series [6] and in series [7] were 15 µM and 7 µM, respectively.
